Laboratory results taken from US20040102370A1 (IMPERIAL INNOVATIONS, published 2004).
Several values for one entry are separate records, joined by “and”; a condition that tells them apart may be missing. Identical values can stand only once. No end group written: not given here.

B1: Peptide A(d): [{Ac-DRVEPYSSTA}2-K]2-K-OH (peptide)
peptide: Ac-DRVEPYSSTA
chain: Lys-OH
modifications: also: four copies of chain 1 on a branched core of three lysines (two Lys on α- and ε-amines of C-terminal Lys)

Molecular target: FGF receptors
Assay: cell-based or functional assay

Binder	peptide concentration giving maximal effect in the neurite outgrowth assay
Ac-DRVE-NH2 [Peptide B: Acetyl-DRVE-amide]	75 µg/ml and 150 µM
B1	~0.4 µM
Ac-DAVEPYSSTA-NH2 [Peptide F: Acetyl-DAVEPYSSTA-amide]	100 µg/ml and 100 µM
Ac-EGMEGM-NH2 [Peptide D: Acetyl-EGMEGM-amide]	63 µg/ml and 100 µM
